In test [1] the target is MICA alpha-3 domain of MICA*001 (Homo sapiens, allele MICA*001, UniProt Q29983, strain). Description: crystal structure.
Test [2] deals with MICA*001 extracellular domain (Homo sapiens, allele MICA*001, UniProt Q29983). Kind of test: ELISA.
In test [3] the target is MICA*002 extracellular domain (Homo sapiens, allele MICA*002 (stand-in …, UniProt Q29983)). Kind of test: ELISA. In general terms: An ELISA detects its analyte on a solid surface through an enzyme-linked reagent.
Test [4] concerns the target MICB*004 extracellular domain (Homo sapiens, allele MICB*004, UniProt Q29980). Description: BLI. On the technique in general: BLI is a label-free optical method that tracks binding on a fibre tip over time.

B1: Fab fragment of CLN-619 (Fab, V domains shown)
VH: QVQLVESGGGLVKPGGSLRLSCAASGFTFSNYAMSWIRQAPGKGLEWVSYISPGGDYIYYADSVKGRFTISRDNAKNSLYLQMNSLRAEDTAVYYCTTDRRHYGSYAMDYWGQGTLVTVSS
VL: DIVMTQSPLSLPVTPGEPASISCRSSKSLLHSNLNTYLYWFLQKPGQSPQILIYRMSNLASGVPDRFSGSGSGTAFTLKISRVEAEDVGVYYCMQHLEYPFTFGPGTKLEIK
For B1, the binding result in test [1] is “binds”.

B2: CLN-619, humanized IgG1 monoclonal antibody against MICA/B (antibody, V domains shown)
VH: B1 VH
VL: B1 VL
In general, Kd refers to the concentration at which binding is half-saturated. The low end stands for higher affinity, the high end for lower affinity. Take B2: the binding result in test [2] and in test [3] was “binds” in each case. For the same molecule, binding in test [4] was put at a Kd of 11.4 nM.

The values are drawn from publication PMC12020772 (Journal for Immunotherapy of Cancer, 2025).
